B1: CPEB3 Ribozyme (parent)
chain: UAACAGGGGGCCACAGCAGAAGCGUUCACGUCGCAGCCCCUGUCAGAUUCUGGUGAAUCUGCGAAUUCUGCUGUAUAUCUC

Variants of: B1
Assay: self-cleavage, relative activity (ratio to wild type); higher = more cleavage; in vitro, sequencing
How it was run: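 After error-prone PCR and barcoding, CPEB3 ribozyme mutant libraries were transcribed with T7 RNA polymerase at 37°C for 5 hours, then given 15 min with DNase I before an EDTA stop, and they cleaved during both steps. Reverse transcription with template switching preceded Illumina sequencing. Relative activity divides a variant's cleaved/total read fraction by the unmutated ribozyme's. At least 5 reads were required per variant, and three batches were averaged.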

Variant | self-cleavage
G16U U26A | 0.26
G16U U26C | 0.24
G16U U31C | 0.19
G16U U41C | 0.41
G16U U43C | 0.15
G16U U49C | 0.1
G16U U49G | 0.14
G16U U54G | 0.55
G16U U60G | 0.21
G16U U67A | 0.19
G16U U67C | 0.09
G16U U69A | 0.22
G16U U69C | 0.13
G16U U74C | 0.58
G16U U76A | 0.33
G16U U78C | 0.27
G16U U80A | 0.52
G16U U80C | 0.7
C17A | 0.32
C17A A18G | 0.48
C17A A18U | 0.11
C17A A20G | 0.3
C17A A21G | 0.25
C17A A28G | 0.22

Variant | self-cleavage
C17A A35G | 0.49
C17A A45U | 0.22
C17A A47G | 0.28
C17A A47U | 0.44
C17A A57G | 0.34
C17A A64G | 0.24
C17A A65U | 0.15
C17A A75U | 0.2
C17A C62G | 0.17
C17A G53A | 0.68
C17A U25C | 0.2
C17A U25G | 0.47
C17A U26A | 0.36
C17A U31A | 0.15
C17A U41A | 0.1
C17A U43C | 0.32
C17A U49C | 0.19
C17A U60A | 0.26
C17A U60C | 0.18
C17A U66C | 0.07
C17A U67C | 0.44
C17A U72G | 0.16
C17A U78C | 0.21
C17A U80C | 0.24

Variant | self-cleavage
C17A U80G | 0.23
C17G | 0.35
C17G A18G | 0.11
C17G A18U | 0.4
C17G A28C | 0.21
C17G A28G | 0.16
C17G A35G | 1.04
C17G A35U | 0.32
C17G A47G | 0.28
C17G A56G | 0.38
C17G A57G | 0.51
C17G A64G | 0.35
C17G A64U | 0.17
C17G A65G | 0.25
C17G A65U | 0.19
C17G A75U | 0.52
C17G C32G | 0.23
C17G C32U | 0.27
C17G C34G | 0.36
C17G C79U | 0.27
C17G G33A | 0.24
C17G G53C | 0.45
C17G U25A | 0.09
C17G U25C | 0.11

Variant | self-cleavage
C17G U25G | 0.06
C17G U26A | 0.29
C17G U26C | 0.16
C17G U31C | 0.28
C17G U41A | 0.25
C17G U41G | 0.08
C17G U48C | 0.2
C17G U49C | 0.06
C17G U51C | 0.6
C17G U54A | 0.54
C17G U58C | 0.22
C17G U60A | 0.19
C17G U60G | 0.25
C17G U72A | 0.21
C17G U72C | 0.31
C17G U78C | 0.48
C17G U80A | 0.37
C17U | 0.73
C17U A18G | 0.23
C17U A20G | 0.45
C17U A21C | 0.12
C17U A21G | 0.32
C17U A28C | 0.51
C17U A28G | 0.36

Variant | self-cleavage
C17U A28U | 0.41
C17U A35G | 1.26
C17U A45G | 0.65
C17U A47U | 0.33
C17U A56G | 0.47
C17U A56U | 0.22
C17U A57G | 0.51
C17U A64G | 0.52
C17U A64U | 0.3
C17U A65U | 0.55
C17U A75U | 0.81
C17U A77G | 0.69
C17U C34A | 0.16
C17U C37A | 0.09
C17U C38A | 0.39
C17U C40U | 0.21
C17U C62A | 0.11
C17U C68U | 0.51
C17U C71A | 0.15
C17U G24C | 0.11
C17U G30U | 0.09
C17U G36A | 0.17
C17U G46U | 0.23
C17U G53C | 0.66

Variant | self-cleavage
C17U G55A | 0.38
C17U G61U | 0.27
C17U G73A | 1.09
C17U U25A | 0.27
C17U U25C | 0.25
C17U U26A | 0.6
C17U U26C | 0.29
C17U U26G | 0.09
C17U U31C | 0.42
C17U U41A | 0.24
C17U U41C | 0.32
C17U U41G | 0.37
C17U U43A | 0.98
C17U U43C | 0.41
C17U U48A | 0.24
C17U U48C | 0.31
C17U U49C | 0.15
C17U U51C | 0.56
C17U U51G | 0.74
C17U U54C | 0.66
C17U U58C | 0.17
C17U U58G | 0.15
C17U U60A | 0.23
C17U U60C | 0.21

Variant | self-cleavage
C17U U66C | 0.23
C17U U67C | 0.22
C17U U69A | 0.4
C17U U69C | 0.21
C17U U69G | 0.25
C17U U72A | 0.21
C17U U72C | 0.74
C17U U72G | 0.4
C17U U74A | 1.02
C17U U74C | 0.97
C17U U76C | 0.83
C17U U78C | 0.63
C17U U80C | 0.85
A18C | 0.41
A18C A20G | 0.44
A18C A20U | 0.15
A18C A21G | 0.21
A18C A28C | 0.43
A18C A28G | 0.29
A18C A28U | 0.37
A18C A35G | 1.03
A18C A35U | 0.16
A18C A45C | 0.21

Source: the RNAGym collection of RNA variant scans (doi:10.1093/nar/gkz1192)
